Measured values published in the NTF2 design screens of Basanta et al. (2020).

Test: protease stability score; higher = more stable; yeast display proteolysis, trypsin and chymotrypsin;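 note: relative to predicted unfolded state with 0 unfolded-like and 1 meaning tenfold more protease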

**Q.** For “SEEERLLHEFWERLQHSHKTGNEEEYRKNIDPHARLDIDGREMHGWENFFHFFVEMRVHDLRIEDYRVQGDKVIVHTRVDGIVNGVRTEIHSELIIRKIDGRWFIEAMTIK”, which protease stability score is on record?
**A.** 1.07

**Q.** Which protease stability score does the source give for “SEEERLMEEAMKEFVNNSLTGDFHKMSNLADPNTRIEIDGRELHGRELAEELWERIKNLTVEIKDYKVQGDKVIIYVKIHVNGREKDVILYVQKINGRWLLRHVEVR” here?
**A.** 1.34

**Q.** Which protease stability score does the source give for “SEEERLTEEFLTKFEEILETGDEELLWRLIDPHARTLFDGQEFHGREDFVMIFDELVRHAGFDVRHIHSIHVQGDKIEVRSTMVVNGRNFEIRLHLRKINGRWHIEEIEIR” here?
**A.** 2.7

**Q.** Which protease stability score does the source give for “SEEERLTRELVEILLELFKTGDEDKWKEMVDPNVRVELIQGEKFIIDHGWESFFRFLLELGVDHREDKRKDAVNGRVHLTGQIDINGRRIDIHLDIDVVNGKVKSIRVELR” here?
**A.** 0.933

**Q.** For “SEEERLYEHAWKLYIHDFITGDEKSHSRLADPHTQMIIGDKLLIGREEFVKWMKHLLDQVKNITVEHVKIRHEHYQGDKAHIDVEEEIHFNGQRHKRRVILTILKVNGRWSIESVEYT”, which protease stability score is on record?
**A.** 0.898

**Q.** For “SEEERMTHEATRDLIETILTGDENILRKLADPNMIINVRQGEKDIRIHGRHDYIRWVKLLGVDHVQVRDIHFQGDKATIHLEVEVNGRSINMIIIMRKVDGRWLITETREHHL”, which protease stability score is on record?
**A.** 1.09

**Q.** With “SEEERQLHEFAELIVHDLLTGNFELLSSLLDPHARMEINGKRFHGWTQILDILHRIWLHLRIRDRQVRRVEVYNGRINSRIEVDGEINGRRISLDELLILVVVDGRIRSESIHFE” as the sequence, how does the protease stability score read?
**A.** 1.03

**Q.** With “SEEERQSREFFKKWIHYMLTGDEHQIHTLADPNVRVVINGKEHHGRERLYELVLEFHHRLQNATSRVHTQDSVVIDGRLELHMELRVHQGDKEDTFQIRQLVVKIDGVWHSKSFEVE” as the sequence, how does the protease stability score read?
**A.** 1.61

**Q.** With “SEEERRDEHLMRLWVHLLLTGDEDTLKKLADPDARLVVGDKTFHGMEEVSRIMHEFLRRLGIKHFHDLDFKHVRHINGVAHFNGRLHGIQGEFERNTNIEFVVVVVDGRIKSSEIHWH” as the sequence, how does the protease stability score read?
**A.** 1.41

**Q.** With “SEEERRYELFLNLLREIMETGDEHRRSNLMDPHVRFDWNGVEFHGREMLEFIIERLHKEARLESYEIHRVTLIGDKIELRVREKRRVGNKIIEWDVIIIVRKIDGKWTIEEVEIR” as the sequence, how does the protease stability score read?
**A.** 1.63

**Q.** For “SEEERSAIEFITRWIQAFETGDEDTLHKLADPNMKIWINGRELIGMQRFIRELQEEMTKRGVRIHIRIEDMRVFNGRLHTDGQFKLEVNGVDVFTTTYLLINKINGKWILEHVNIN”, which protease stability score is on record?
**A.** 1.3

**Q.** With “SEEERTAEKLMRDWLKNWMTGNEEIIKELADPNVKLLVGDKEMHGMEELSRFLKELRIHDSDVRDIRLKSINGVLHIESDGRLKGEFNGQHIDTRTVVRLDVHKFDGRWHLKSIEVEIR” as the sequence, how does the protease stability score read?
**A.** 1.95

**Q.** Which protease stability score does the source give for “SEEERTQTLAMKIIWDVLLTGDWKELFDNMDPHARMEINGRKFHGREEIIRHLRELHNKLGIDRVESHLHSVHYVDGVIHVDIHLHYNGKDERIEIIAMKYNGRWTLTEVNYREE” here?
**A.** 2.13

**Q.** With “SEEERVAIEHMRWVIRALLTGDEELLRHLFDPSTRFDFDGQHRIGMEDLVRFWRHLRVRRFEIEDERVHFQGDKIEARTEGRIQGDINGKNVEREIRVILIVMKIDGKWIIRIISHEVD” as the sequence, how does the protease stability score read?
**A.** 1.63

**Q.** With “SEEERVAKHVSHNLFESLKTGNEEEIEKFFDPNVKVQVGEFEHHGREAVLFWFHEFGIKHIHFHEERVQGDKMHSHLNLIVNGRHISHHIHFHKINGRWHITHQRFH” as the sequence, how does the protease stability score read?
**A.** 0.828

**Q.** Which protease stability score does the source give for “SEEERVLREAIKLLEHLLRTGDEKSFHELFDPDVKIEIGDKEVHGRERWVELYRTWGLENVESHVRVDDERIQGDKMEMDMQLDLRYDGRIDTTKVIILATKINGRWKLEHFEEE” here?
**A.** 0.028

**Q.** Which protease stability score does the source give for “SEEERYHDKALKILKESVDTGDPHLLSRYMDPNDRLDINGREIHGMEILLKELLHIMERADHIRIELNDIKMQGDFLELDGILIIHQGEYTLQLRVKLVSLKVDGRWLHHSIEVK” here?
**A.** 0.171

**Q.** For “SEEESKERHNEKFLKTVHKTGDEHSWRKMLDPDVRVEYGDKHDHGWEAIERFRKELGIERIHIDDRKIRHNEVVNGQVYLHEELVGTVNGVHVQVKMLIIFHKVDGKWHVELVQIN”, which protease stability score is on record?
**A.** 0.559

**Q.** Which protease stability score does the source give for “SEEETDAKIAYHLEYELLKTGDEKMIHENLDPDARFISDVNGVEHRDHGRENFSRSMSEWLKRFGVDHMDIRHVRFFNGKIDMEVEINVNGVRIDLHLHSHKINGQWIITRVDIRID” here?
**A.** 1.24

**Q.** With “SEEETFTEIAVKLLMHLWNTGDENELMRNFDPNARMDINGQEYHGREDIVRRLDEFKKRLGVERVHFELNDIRPVNGRADVDGIVIFNGQKLRVRHIVWKINGRWYLEEFEVR” as the sequence, how does the protease stability score read?
**A.** 1.44

**Q.** With “SEEETHVKEAVKRSVDFLETGDERLFRELFDPNVRLIVNVGNKRVELHGWEEVVRWLREARLHRVILRTIRIQGDKAEVEGDVDGEINGRHDLHIIEWHFIVINGRFHSVSVRIE” as the sequence, how does the protease stability score read?
**A.** 1.05

**Q.** With “SEEETMERLSIEITLEMLKTGDETEILKNMDPDARVIVGDKVYHGREHVIELWRRLGVKHSEPKHVYVINGRVHIDMEVHVDGKRFHVHIISHKINGQWSITNVKLEKE” as the sequence, how does the protease stability score read?
**A.** 2.02

**Q.** Which protease stability score does the source give for “SEEETRLEKYLRILLEMWKTGNEEWMFKYADPDARLQVGDKEFHGREHIMKFLKDWLDKAGVKHEEDRREEYIGDKLRVDSERNVNGVENRVILIFVVINGRYREFIIIIR” here?
**A.** 1.47

**Q.** With “SEEEVLAHKFLRTWVESMNTGDEKSIMRLFDPNVRYHVGDKEIHGMDEHREEFTELLHRVKNVRFFFDEHDMRNIDGRIEMKGRLEIIQGEYHESTTVELIITKVNGQWVWESVFIK” as the sequence, how does the protease stability score read?
**A.** 0.488

**Q.** For “SEEEVQFRRFFEAFLHFWETGDEKMLKTLLDPHVKFTVHFENHRSHYHGREEFTKFLHELGVKHFELDRVRIEFQGDKIRIEIDGVLLYDGRFHESHIILIIVKVDGRWVIHQLHIQIE”, which protease stability score is on record?
**A.** 2.15
